Data on 41 sequences can be found in the nanobody polyreactivity screen of Harvey et al. (2022).

The data set is described as follows: yeast display, Sf9 membrane polyspecificity reagent, FACS + sequencing; frameworks hold sequencing errors. The method, boiled down: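 Nanobodies came from a synthetic yeast display library in Saccharomyces cerevisiae BJ5465, induced with galactose for 36–48 hours and stained for 1 hour at 4 °C with 10% biotinylated, detergent-solubilized Sf9 membrane reagent. Cells were enriched on streptavidin microbeads and then FACS-sorted, with low and high (top ~1%) gates set on anti-HA fluorescence for expression and streptavidin fluorescence for reagent binding. Each polyreactivity label reflects the gate a clone came from. Genes were amplified by colony PCR, sequenced by MiSeq 2 × 250 and filtered by CDR length.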
For the sequence “QVQLVESGGGLVQAGGSLRLSCAASGSIFGPYSMGWYRQAPGKERELVAAISWRGGTTRYADSVKGRFTISRDNAKNTVYLQMNSLKPEDTAVYYCNRTVYSKTQYDYDYWGQGTQVTVSS”, the “polyreactivity (PSR sort gate)” value is “high polyreactivity”.
As to “QVQLVESGGGLVQAGGSLRLSCAASGSIFGQNAMGWYRQAPGKERELVAAITSGAGITYYADSVKGRFTISRDNAKNTVYLQMNSLKPEDTAVYYCNAVPSWTPSPLFDYWGLGTQVTVSS”, the “polyreactivity (PSR sort gate)” value is recorded as “low polyreactivity”.
“QVQLVESGGGLVQAGGSLRLSCAASGSIFGRNTMGWYRQAPGKERELVAAISRSGGSTYYADSVKGRFTISRDNAKNTVYLQMNSLKPEDSAVYYCAARGKYDYSGVSFNYWGQGTQVTVSS”: the “polyreactivity (PSR sort gate)” value is “high polyreactivity”.
As to “QVQLVESGGGLVQAGGSLRLSCAASGSIFGRYAMGWYRQAPGKERELVAAISSSGGRTYYADSVKGRFTISRDNAKNTVYLQMNSLKPEDTAVYYCNAGTPYRGDYWGQGTQVTVSS”, the “polyreactivity (PSR sort gate)” value was “high polyreactivity”.
In the case of “QVQLVESGGGLVQAGGSLRLSCAASGSIFGRYAMGWYRQAPGKERELVASITRGAGSTYYADSVKGRFTISRDNAKNTVYLQMNSLKPEDTAVYYCRLAPRYRKGGYWGQGTQVTVSS”, the “polyreactivity (PSR sort gate)” value is given as “high polyreactivity”.
With “QVQLVESGGGLVQAGGSLRLSCAASGSIFGRYGMVWSRPAPGKERELVAAITSATRTNYADSVKGRFTISRDNAKNTVYLQMNSLKPEDTAVYYCAKQTYRRLPQTPYNYWGQGSQVTVSS” the entry was “low polyreactivity”.
Consider “QVQLVESGGGLVQAGGSLRLSCAASGSIFGRYVMGWYRQAPGKERELVAAINRSGGRTYYADSVKGRFTISRDTAKNTVYLQMNSLKPEDTAVYYCATYTRSSASKEVPYDYWGQGTEVTVSS”, for which the “polyreactivity (PSR sort gate)” value was “high polyreactivity”.
Take “QVQLVESGGGLVQAGGSLRLSCAASGSIFGSNAMGWYRQAPGKERELVAAISYRGGSTYYADSVKGRFTISRDNAKNTVYLQMNSLKPEDTAFYYCAKVSSYKPYDYWGLGTQVTVSS”: the “polyreactivity (PSR sort gate)” value is on record as “low polyreactivity”.
With “QVQLVESGGGLVQAGGSLRLSCAASGSIFGSNAMGWYRQAPGKERELVAAITNTGRTNYADSVKGRFTISRDNAKNTVYLQMNSLKPEDTAVYYCNTDCYEFTHFVGGWYQIIDYDYWGQGSQVTVSS” the entry was “low polyreactivity”.
With “QVQLVESGGGLVQAGGSLRLSCAASGSIFGSNAMGWYRQSPGKERELVAAISRSGGSTYYADSVKGRFTISRDNAKNTVYLQMNSLKPEDTAVYYCAVVASRSHTETPEYDFWGQVTQVTVSS” the entry was “low polyreactivity”.
Take “QVQLVESGGGLVQAGGSLRLSCAASGSIFGSNTMGWYRQAPGKERELVAAINSSGGSTYYADSVKGRFTISRDNAKNTVYLQMNSLKPEDTEVYYCNAASYRFFPYLYYYWGQGTQVTVSS”: the “polyreactivity (PSR sort gate)” value is “high polyreactivity”.
Turning to “QVQLVESGGGLVQAGGSLRLSCAASGSIFGSYAMGWYRQAPGKERELVAGITYRGSSTYYADSVKGRFTISRDNAKNTVYLQMNSLKPEDTAVYYCAADPVFDEYDYWGQGTQVTVSS”, the “polyreactivity (PSR sort gate)” value is reported as “low polyreactivity”.
“QVQLVESGGGLVQAGGSLRLSCAASGSIFGSYAMGWYRQAPGKERELVASITRVDSTNYADSVKGRFTISRDNAKNTVYLQMNSLKPEDTAVYYCNAGSRTTAGGMDSWGQGTQVTVSS”: the “polyreactivity (PSR sort gate)” value was “low polyreactivity”.
With “QVQLVESGGGLVQAGGSLRLSCAASGSIFGSYAMGWYRQAPGKERSTYYADSVKGRFTISRDNAKNTVYLQMNSLKPEDTAVYYCAADTYGYQGSAGGHWGQGTQVTVSS” the entry was “low polyreactivity”; with “QVQLVESGGGLVQAGGSLRLSCAASGSIFGSYDMGWYRQAPGKERELVAAISEGGGSTYYADTVKGRFTISRDNAMNTVYLQMYSLKPEDTAVYYCAADLILSYYPYYQDYYWGQGTQVTVSS”, “low polyreactivity”; with “QVQLVESGGGLVQAGGSLRLSCAASGSIFGSYTMGWYRQAPGKERELVAAINASGGRTYYADSVKGRFTISRDNAKNTVYLQMNSLKPEDTAVYYCNKATYYQTYDYWGQGTQVTVSS”, “high polyreactivity”.
On to “QVQLVESGGGLVQAGGSLRLSCAASGSIFGSYTMGWYRQAPGKERELVAVINWSGDRTYYADSVKGRFTISRDNAKNNVYLHMNSLKPEDTAVYYCAARERAGYSGIRYNYWGQGSQVTVSS”, for which the “polyreactivity (PSR sort gate)” value is “low polyreactivity”.
On to “QVQLVESGGGLVQAGGSLRLSCAASGSIFGTNAMGCYRQAPGKERELVAAIDGGSTTYYADSVKGRFTISRDNAKNTVYLQMNSLKPEDTAVYYCAADGTRSLNYAGYAGYEYWGQGTQVTVSS”, for which the “polyreactivity (PSR sort gate)” value was “low polyreactivity”.
Turning to “QVQLVESGGGLVQAGGSLRLSCAASGSIFGTNAMGWYRQAPGKERELVAAIDGGSTTYYADSVKGRFTISRDNAKNTVYLQMNSLKPEDTAVYYCAADGTRYLNYEGYAGYEYWGQGTQVTVSS”, the “polyreactivity (PSR sort gate)” value is given as “low polyreactivity”.
Take “QVQLVESGGGLVQAGGSLRLSCAASGSIFGTNAMGWYRQAPGKERELVAAINWSGGTTYYADSVKGRFTISRDNAKNTVYLQMNSLKPEDTAVYYCATVFFVLPPTRFDSWGQGTQVTVSS”: the “polyreactivity (PSR sort gate)” value is “low polyreactivity”.
Consider “QVQLVESGGGLVQAGGSLRLSCAASGSIFGTNAMGWYRQAPGKERELVATITSAGSTYYADSVKGRFTISRDNAKNTVYLQMNSLKPEDTAVYYCARQATGYVYREYDYWGQGTQVTVSS”, for which the “polyreactivity (PSR sort gate)” value was “low polyreactivity”.
For “QVQLVESGGGLVQAGGSLRLSCAASGSIFGTNGMGWYRQAPGKERELVAAITRRGGSTYADSVKGRFTISRDNAKNTVYLQMNSLKPEDTAVYYCAVDQGYVVRLAWIYGYWGQGTQVTVSS”, the “polyreactivity (PSR sort gate)” value is recorded as “low polyreactivity”.
To “QVQLVESGGGLVQAGGSLRLSCAASGSIFGTYAIGWDRQAPGKERELVAAISRGGRTYYADSVKGRFTISRDNAKNTVYLQMNSLKPEDTAVYYCAARTVGLRGYYYWGQGTQVTVSS” belongs “high polyreactivity”; to “QVQLVESGGGLVQAGGSLRLSCAASGSIFGTYAMGWYRQAPGKEREFVAAISWADGSTYYADSVKGRFTISRDNAKNTVYLQMNSLNPEDTAVFYCAVRRVGSIYIDRYIYVVADYDYWGQGTQVTVSS”, “low polyreactivity”; to “QVQLVESGGGLVQAGGSLRLSCAASGSIFGTYAMGWYRQAPGKEREFVAAISWSDGSTYYADSVKGRFTISRDNAKNTVYLQMNSLKPEDTAVYYCAAKSDPYRHDYWGQGTQVTVSS”, “low polyreactivity”.
For “QVQLVESGGGLVQAGGSLRLSCAASGSIFGTYAMGWYRQAPGKERELVAAISWSDGSTYYADSVKGRFTISRDNAKNTVYLQMNSLKPEDTAVYYCAKVYRSIGPNVSRYGLSYYYWGQGSQVTVSS”, the “polyreactivity (PSR sort gate)” value is reported as “low polyreactivity”.
For “QVQLVESGGGLVQAGGSLRLSCAASGSIFGVNAMGWYRQAPGKERELVAAISNSGVRKYYADSVKGRFTISRDNAKNTVYLQMNSLKPEDTAVYYCARTYQVGDSIDDYWGQGTQVTVSP”, the “polyreactivity (PSR sort gate)” value was “low polyreactivity”.
With “QVQLVESGGGLVQAGGSLRLSCAASGSIFGVYVMGWYRQAPGKERELVAAITRGASTNYADSVKGRFTISRDNAKNTVYLQMNSLKPEDTAVYYCAARQVSVSGHQYGYWGQGTQVTVSS”, the “polyreactivity (PSR sort gate)” value is listed as “low polyreactivity”.
With “QVQLVESGGGLVQAGGSLRLSCAASGSIFGWNAMGWYRQAPGKERELVAAISSGGSTYYADSVKGRFTISRDNAKNTVSLQMNSLKPEDTAVYYCNAYFQYYDYWGQGTQVTVSS”, the “polyreactivity (PSR sort gate)” value is recorded as “low polyreactivity”.
Regarding “QVQLVESGGGLVQAGGSLRLSCAASGSIFGWNAMGWYRQAPGKERELVASITWSGGRTYYADSVKGRFTISRDNAKNTVYLQMNSLKPEDTAVYYCAARGYTVWDDYWGQGTQVTVSS”, the “polyreactivity (PSR sort gate)” value was “high polyreactivity”.
With “QVQLVESGGGLVQAGGSLRLSCAASGSIFGWNTMGWYRQAPGKERELVASISRRGGSTHYADSVKGRFTISRDNAKNTVYLQMNSLKPEDTAVYYCAKVRYQGNGGYYWGQGTQVTVSS” the entry was “high polyreactivity”; with “QVQLVESGGGLVQAGGSLRLSCAASGSIFGWYAMGLYRQAPGKERELVAAITFSSVSTYYADSVKGRFTISRDNAKNTVYLQMNSLKPEVTAVYYCGAVVYYTFDYWVQGTQVTVSS”, “low polyreactivity”; with “QVQLVESGGGLVQAGGSLRLSCAASGSIFGWYAMGWYRQAPGKERELVADISYIGVSTYYADSVKGRFTISRDNAKNTVYLQMNTLKPEDTAVYYCATYYLLYPIPYGYPRSPEYEYWGQGTQVTVSS”, “low polyreactivity”.
With “QVQLVESGGGLVQAGGSLRLSCAASGSIFGWYAMGWYRQAPGKERELVASIRKSGGSTYYADSVKGRFTISRDNAKNTVYLQMNSLKPEDTAVYYCAAERYKNGAGQRKYAYDYWGQGTQVTVSS”, the “polyreactivity (PSR sort gate)” value was “high polyreactivity”.
“QVQLVESGGGLVQAGGSLRLSCAASGSIFGWYAMRSYRQAPGKATELVASISGSGGSTYYADSVKGRFTISRDNAKNTVYLQMNSLKPEDTAVYYCAADYALSSLPFDYWGQGTQVTVSS”: the “polyreactivity (PSR sort gate)” value is reported as “high polyreactivity”.
With “QVQLVESGGGLVQAGGSLRLSCAASGSIFGYAMGWYRQAPGKERELVAAISFSGVSTYYADSVKGRFTISRDNAKNTVYLQMNSLKPDDTAVYYCATDRFYYRTGYDPYYYWGQGTQVTVSS” the entry was “low polyreactivity”; with “QVQLVESGGGLVQAGGSLRLSCAASGSIFGYNAMGWYRQAPATERELVATIRNGGITNYADSVKGRFTISRDNAKNTVYLQMNSLKPEDTAVYYCAADVVQYLYYFRLDYWGQGTQVTVSS”, “low polyreactivity”; with “QVQLVESGGGLVQAGGSLRLSCAASGSIFGYNAMGWYRQAPGKEREFVAAISWSGGRTYYADSVKGRFTISRDNAKNTVYLQMNSLKPEDTAVYYCAAPSRPAPRFDYWGQGTQVTVSS”, “low polyreactivity”.
Take “QVQLVESGGGLVQAGGSLRLSCAASGSIFGYNAMGWYRQAPGKERELVAAISYSGGSTYYADSVKWRFTISRDNAKNTVYLQMNSLKPEDTAVYYCNKYIRRYLIYGSWGQGTQVTVSS”: the “polyreactivity (PSR sort gate)” value was “high polyreactivity”.
As to “QVQLVESGGGLVQAGGSLRLSCAASGSIFGYNAMGWYRQAPGKERELVAVITRSDGSTYYADSVKGRFTISRDNAKNTVYLQMNSLKPEDTAVYYCNAETHVYYWGVVIYEYNYWGQGTQVTVSS”, the “polyreactivity (PSR sort gate)” value is on record as “low polyreactivity”.
As to “QVQLVESGGGLVQAGGSLRLSCAASGSIFGYNTMGWYIQAPGKERELVATITRGGSTHYADSVKGRFTISRDNAKNTVYLQMNSLKPEDTAVYYCAATRLSYVRLYRFSQQYYYWGQGTQVTVSS”, the “polyreactivity (PSR sort gate)” value is given as “high polyreactivity”.
